In patent publication US12702694B2, “Methods for identification, assessment, prevention, and treatment of metabolic disorders using SLIT2” (Dana-Farber Cancer Institute, Inc., priority 2015, dated 2026):

What was measured:
PKA signaling pathway = assay: Western blotting of PKA and related signaling in primary inguinal cells; assay type: cell-based, Mus musculus; conditions: for PKA signaling after treatment with conditioned media: serum-free conditioned media from expressing cells, acute treatment (30 min), FIG. 10G
Protocol: (§1) Inguinal and brown stromal-vascular fractions were obtained from 6 weeks old male or newborn mice (postnatal days 5-10) for white and brown fat cultures, respectively. Inguinal fat tissue was dissected and washed with PBS, minced and digested for 45 min at 37° C. in PBS containing 10 mM CaCl2), 2.4 U/ml dispase II (Roche) and 10 mg/ml collagenase D (Roche). Brown fat tissue was dissected, washed with PBS, minced and digested for 45 min at 37° C. in PBS containing 1.3 mM CaCl2, 123 mM NaCl, 5 mM KCl, 5.0 mM glucose, 100 mM HEPES, 4% BSA and 1.5 mg/ml collagenase B (Roche). Digested tissue was filtered through a 100-μm cell strainer and centrifuged at 600 g for 10 min. Pelleted inguinal stromal-vascular cells were grown to confluence and induced to differentiate by an adipogenic cocktail containing 0.02 μM insulin, 1 μM rosiglitazone, 5 μM dexamethasone, 0.5 μM isobuthylmethylxanthine. For differentiation of brown fat cells, 1 nM T3 and 125 μM indomethacin were also added to the adipogenic cocktail. Two days after induction, cells were maintained in adipocyte culture medium containing 0.02 μM insulin and 1 μM rosiglitazone. Where indicated, cells were treated with forskolin (10 μM), norepinephrine (100 nM) for 4 h or with recombinant proteins (1 μg/ml, R&D systems) for 24 h or for the indicated times. For adenoviral overexpression of Slit2-FL, Slit2-N, Slit2-C, LacZ or Cre, virus was added at day 2 of differentiation at a titer of 10^8 particles/well and cells were analyzed at day 6-7. Where indicated, cells were treated with the drugs Erlotinib (SelleckChem), Lapatinib (Santa Cruz), PD0325901 (Santa Cruz), Propranolol (SelleckChem), H89 dihydrochloride (Santa Cruz), SQ-22536 (Santa Cruz) for indicated time points and concentrations.
For Western blotting, homogenized tissues, whole cell lysates, or concentrated serum free conditioned medium were lysed in RIPA buffer containing protease inhibitor cocktail (Thermo Scientific) and phosphatase inhibitor cocktail (Thermo Scientific), separated by SDS-PAGE and transferred to Immobilon-P® membranes (Millipore). For Western blotting of plasma samples, 1 μl of plasma was prepared containing 2× sample buffer (Invitrogen) with reducing agent, boiled and analyzed using Western blot against V5, FLAG, or the indicated antibody. V5-antibody was from Life Technologies and anti-Flag M2-HRP (A8592) from Sigma Aldrich. Anti-Slit2 antibody used was from Abcam (Abcam ab134166). Phospho-PKA Substrate, phospho-PKC Substrate, phospho-ERK1/2, total ERK, phospho-AKT, total AKT, phospho-AMPK, total AMPK, phospho-ATGL, ATGL, phospho-EGFR and EGFR were from Cell Signaling. Protein array was from R&D Systems (Proteome Profiler Mouse Phospho-RTK Array Kit, ARY014). Silverstain (SilverQuest™ Silver Staining Kit, LC6070) was purchased from Thermo Fisher.

UCP1 = UCP1 immunohistochemistry on adipose tissue sections; assay type: in vivo, Mus musculus; conditions: day 7
Protocol: Tissues were fixed in 4% paraformaldehyde. Paraffin embedding and sectioning were done by the Dana-Farber/Harvard Cancer Center Research Pathology core facility. For UCP1 immunohistochemistry, slides were deparaffinized in xylene, hydrated in descending 95%, 80% and 70% ethanol, and rinsed in water before heat-mediated antigen retrieval in 10 mM, pH 6.0 sodium citrate buffer. Quenching of endogenous peroxidases was performed using peroxidase quenching solution (Invitrogen). Slides were blocked in 10% goat serum and incubated with rabbit polyclonal UCP1 antibody (Abcam, ab10983) at […] in PBS-T/1% BSA overnight at 4° C. Slides were washed in PBS-T and incubated with 1:500 donkey anti-rabbit IgG HRP-linked antibody (GE healthcare) before developing using a SuperPicture™ 3rd Gen IHC Detection Kit (Invitrogen). Hematoxylin was used as counterstain. […] Digital images were captured with a Nikon Digital Sight DS-Fil color camera and NIS-Elements acquisition software.

primary inguinal cells = assay: Thermogenic gene expression in primary inguinal cells with adenoviral overexpression; assay type: cell-based, Mus musculus
Protocol: Inguinal and brown stromal-vascular fractions were obtained from 6 weeks old male or newborn mice (postnatal days 5-10) for white and brown fat cultures, respectively. Inguinal fat tissue was dissected and washed with PBS, minced and digested for 45 min at 37° C. in PBS containing 10 mM CaCl2), 2.4 U/ml dispase II (Roche) and 10 mg/ml collagenase D (Roche). Brown fat tissue was dissected, washed with PBS, minced and digested for 45 min at 37° C. in PBS containing 1.3 mM CaCl2, 123 mM NaCl, 5 mM KCl, 5.0 mM glucose, 100 mM HEPES, 4% BSA and 1.5 mg/ml collagenase B (Roche). Digested tissue was filtered through a 100-μm cell strainer and centrifuged at 600 g for 10 min. […] For adenoviral overexpression of Slit2-FL, Slit2-N, Slit2-C, LacZ or Cre, virus was added at day 2 of differentiation at a titer of 10^8 particles/well and cells were analyzed at day 6-7. […]
(§2) RNA was extracted from cultured cells or frozen tissue samples using TRIzol®, purified with QIAGEN RNeasy® minicolumns. Normalized RNA was reversed transcribed using a high-capacity cDNA reverse transcription lot (Applied Biosystems) and cDNA was analyzed by qRT-CPR. Relative mRNA levels were calculated using the comparative CT method and normalized to cyclophilin […]. […]

[1] = system: primary inguinal adipocytes; assay: Thermogenic gene expression (qRT-PCR) in primary adipocytes treated with recombinant protein; assay type: cell-based, Mus musculus
Protocol: as §1, with “Where indicated, cells were treated with the drugs Erlotinib (SelleckChem), Lapatinib (Santa Cruz), PD0325901 (Santa Cruz), Propranolol (SelleckChem), H89 dihydrochloride (Santa Cruz), SQ-22536 (Santa Cruz) for indicated time points and concentrations.” left out
as §2

diet-induced obese mice = assay: Intraperitoneal glucose tolerance test; assay type: in vivo, Mus musculus
Protocol: Glucose tolerance tests were performed on mice 7 days post-injection with adenovirus. […] Animals were fasted overnight and then received intraperitoneal glucose at […]. Energy expenditure was analyzed using a Comprehensive Lab Animal Monitoring System (Columbus Instruments). Cold exposure and thermoneutrality experiments were performed in Balb/c mice at 4° C. or 30° C., respectively. Total levels of cholesterol, free fatty acids, triglycerides and insulin were measured at the Core Facility at Joslin Diabetes Center.

[2] = Slit2-C-transduced cells, FIG. 10B

B1: Slit2-C: ~50 kDa C-terminal cleavage fragment of Slit2 beginning at TSP (SEQ ID NO: 22); adenovirally expressed or purified FLAG-tagged protein (protein, listed as Homo sapiens)
chain: TSPCDNFDCQNGAQCIIRINEPICQCLPGYLGEKCEKLVSVNFVNKESYLQIPSAKVRPQTNITLQIATDEDSGILLYKGDKDHIAVELYRGRVRASYDTGSHPASAIYSVETINDGNFHIVELLTLDSSLSLSVDGGSPKVITNLSKQSTLNFDSPLYVGGMPGKNNVASLRQAPGQNGTSFHGCIRNLYINSELQDFRKMPMQTGILPGCEPCHKKVCAHGMCQPSSQSGFTCECEEGWMGPLCDQRTNDPCLGNKCVHGTCLPINAFSYSCKCLEGHGGVLCDEEEDLFNPCQMIKCKHGKCRLSGVGQPYCECNSGFTGDSCDREISCRGERIRDYYQKQQGYAACQTTKKVSRLECRGGCAGGQCCGPLRSKRRKYSFECTDGSSFVDEVEKVVKCGCARCAS
modifications: FLAG tag
notes: adenovirally expressed or purified FLAG-tagged protein
activation of protein kinase C (PKC) substrates and ATGL S406 (PKA signaling pathway; FIG. 10E): minimal
protein levels of UCP1 (PKA signaling pathway; Slit2-C overexpression, FIGS. 10B, 10F): increased
phosphorylation of hormone sensitive lipase (HSL S660) (PKA signaling pathway; [2]): induced
total HSL (PKA signaling pathway; [2]): unaffected
phosphorylation of PKA substrates (PKA signaling pathway; Slit2-C-transduced vs lacZ-transduced cells, FIG. 10B): robust phosphorylation
PKA signaling after treatment with conditioned media (PKA signaling pathway): increased
subset of PKA substrate phosphorylations after purified protein treatment (PKA signaling pathway; time-dependent and dose-dependent, FIGS. 10M, 11F): increased
UCP1 staining in inguinal white fat depots (UCP1; Slit2-C vs control animals, FIGS. 6E, 6G): multiple pockets of UCP1-positive cells
thermogenic gene expression in primary inguinal cells (primary inguinal cells; Slit2-C vs LacZ virus, day 7, FIG. 6A): comparable to full-length Slit2
changes in thermogenic gene expression in white and brown adipocytes in culture ([1]; 2 h after purified protein treatment, FIG. 10N): induced
glucose tolerance (diet-induced obese mice; diet-induced obese mice, circulating Slit2-C, day 7, FIG. 8G): dramatically improve

B2: Slit2: Slit family secreted extracellular matrix protein, full length ~180 kDa; used as commercial recombinant protein or adenovirally expressed (protein)
chain: QACPAQCSCSGSTVDCHGLALRSVPRNIPRNTERLDLNGNNITRITKIDFAGLRHLRVLQLMENRISTIERGAFQDLKELERLRLNRNNLQLFPELLFLGTAKLYRLDLSENQIQAIPRKAFRGAVDIKNLQLDYNQISCIEDGAFRALRDLEVLTLNNNNITRLSVASFNHMPKLRTFRLHSNNLYCDCHLAWLSDWLRQRPRVGLYTQCMGPSHLRGHNVAEVQKREFVCSGHQSFMAPSCSVLHCPAACTCSNNIVDCRGKGLTEIPTNLPETITEIRLEQNSIRVIPPGAFSPYKKLRRLDLSNNQISELAPDAFQGLRSLNSLVLYGNKITELPKSLFEGLFSLQLLLLNANKINCLRVDAFQDLHNLNLLSLYDNKLQTVAKGTFSALRAIQTMHLAQNPFICDCHLKWLADYLHTNPIETSGARCTSPRRLANKRIGQIKSKKFRCSGTEDYRSKLSGDCFADLACPEKCRCEGTTVDCSNQRLNKIPDHIPQYTAELRLNNNEFTVLEATGIFKKLPQLRKINFSNNKITDIEEGAFEGASGVNEILLTSNRLENVQHKMFKGLESLKTLMLRSNRISCVGNDSFIGLGSVRLLSLYDNQITTVAPGAFDSLHSLSTLNLLANPFNCNCHLAWLGEWLRRKRIVTGNPRCQKPYFLKEIPIQDVAIQDFTCDDGNDDNSCSPLSRCPSECTCLDTVVRCSNKGLKVLPKGIPKDVTELYLDGNQFTLVPKELSNYKHLTLIDLSNNRISTLSNQSFSNMTQLLTLILSYNRLRCIPPRTFDGLKSLRLLSLHGNDISVVPEGAFNDLSALSHLAIGANPLYCDCNMQWLSDWVKSEYKEPGIARCAGPGEMADKLLLTTPSKKFTCQGPVDITIQAKCNPCLSNPCKNDGTCNNDPVDFYRCTCPYGFKGQDCDVPIHACISNPCKHGGTCHLKEGENAGFWCTCADGFEGENCEVNIDDCEDNDCENNSTCVDGINNYTCLCPPEYTGELCEEKLDFCAQDLNPCQHDSKCILTPKGFKCDCTPGYIGEHCDIDFDDCQDNKCKNGAHCTDAVNGYTCVCPEGYSGLFCEFSPPMVLPRTSPCDNFDCQNGAQCIIRINEPICQCLPGYLGEKCEKLVSVNFVNKESYLQIPSAKVRPQTNITLQIATDEDSGILLYKGDKDHIAVELYRGRVRASYDTGSHPASAIYSVETINDGNFHIVELLTLDSSLSLSVDGGSPKVITNLSKQSTLNFDSPLYVGGMPGKNNVASLRQAPGQNGTSFHGCIRNLYINSELQDFRKMPMQTGILPGCEPCHKKVCAHGMCQPSSQSGFTCECEEGWMGPLCDQRTNDPCLGNKCVHGTCLPINAFSYSCKCLEGHGGVLCDEEEDLFNPCQMIKCKHGKCRLSGVGQPYCECNSGFTGDSCDREISCRGERIRDYYQKQQGYAACQTTKKVSRLECRGGCAGGQCCGPLRSKRRKYSFECTDGSSFVDEVEKVVKCGCARCAS
PKA signaling after treatment with conditioned media (PKA signaling pathway): increased
iWAT UCP1 protein (UCP1; histological sections, i.v. Slit2 adenovirus): increased
increase in Ucp1 mRNA (primary inguinal cells; adenovirus on day 2 of differentiation, analyzed day 7, vs lacZ, FIG. 3D): 8 fold
expression of other genes associated with thermogenesis, including Dio2 and Cidea ([1]; recombinant Slit2 protein 1 μg/ml, 24 hours, FIG. 3A): large increases
increase in Ucp1 mRNA ([1]; recombinant Slit2 protein 1 μg/ml, 24 hours, fully differentiated primary inguinal adipocytes, FIG. 3A): ~ 3 fold
glucose tolerance, compared with Slit2-C experiments (diet-induced obese mice; full-length Slit2 adenovirus, FIG. 9F): comparable results
